The values that follow come from patent US9512428B2, “Method of deriving mature hepatocytes from human embryonic stem cells” (Wisconsin Alumni Research Foundation, priority 2012, dated 2016).

For one series, the system named is CYP1A2. The series is described as follows: CYP1A2 induction by omeprazole in transduced hESC-derived hepatocytes (quantitative PCR). In kind it is in vitro ADME, human. The protocol:
Induction of this enzyme was also measured in HepG2 human hepatocytes and in fresh primary human hepatocytes. Expression was measured by quantitative PCR, and the expression levels are shown as GAPDH normalized gene expression values (RQ values or relative quantity values. Error bars indicate RQ min and RQ max values).
(RQ values or relative quantity values. Error bars indicate RQ min and RQ max values).
Omeprazole and rifampicin (also known as rifampin; Sigma) were added to DMEM at 100 μM and 10 μM respectively for 3 days. The resulting medium was analyzed by mass spectrometry. Metabolites of the tested drugs, omeprazole sulfone (Santa Cruz Biotechnology), 5-hydroxy omeprazole (Cachesyn), and desacetyl rifampicin (Santa Cruz Biotechnology) were dissolved in DMEM to prepare standard curves.

Series [1] has as its system hESC derived hepatocytes. In words: Rifampin metabolism to 25-des acetyl rifampin in hESC derived hepatocytes (LC-MS/MS). To be noted: hESC derived hepatocytes co-transduced with let-7c and mir-122, 72 hours incubation.
A further series concerns hepatitis B virus (HBV). In words: HBV infection and replication in transduced hESC-derived hepatocytes (viral genome QPCR). In kind it is cell-based. The procedure:
FIG. 8 is a bar graph showing that HBV infects and replicates in human embryonic stem cell-derived hepatocytes. Number of copies of the HBV genome is reported for human embryonic stem cell-derived hepatocytes transduced with mir-122 infected with HBV (es heps with miRNA), positive control (human heps), and negative controls (hepg2). The copy numbers were calculated by QPCR. QPCR standard curve was prepared by serial dilution of LJ144, a construct that contains the whole viral genome. Both LJ144 and QPCR primers were disclosed by Watanabe et al. (PNAS 2007 104 (24)).
The copy numbers were calculated by QPCR. QPCR standard curve was prepared by serial dilution of LJ144, a construct that contains the whole viral genome. Both LJ144 and QPCR primers were disclosed by Watanabe et al. (PNAS 2007 104 (24)). […]
Infected cells were lysed at 6 days post-infection and treated with micrococcal nuclease. […] QPCR was performed to quantify the viral genomes present in the isolated DNA using the QPCR primers disclosed by Watanabe et al. (PNAS 2007 104 (24)). […]
Infectious HBV virions were concentrated from media of HepAD38 cells (Ladner et al. 1997) by PEG 8000 precipitation followed by centrifugation. […] Viral genome copy numbers were quantified by QPCR using primers previously published (see Watanabe et al. 2007). […]

Series [2] has as its system hESC derived hepatocytes. The series is described as follows: QPCR of liver genes in hESC derived hepatocytes transduced with let-7c alone or with mir-122. In kind it is cell-based, human. To be noted: GAPDH normalized, versus non-transduced hESC derived hepatocytes. The procedure:
Expression of albumin was also measured in HepG2, a human hepatoma cell line (hepg2). Expression was measured by quantitative PCR. Indicated expression levels (on the Y axis) are GAPDH normalized gene expression values called RQ values (relative quantity values), with HepG2 expression assigned a relative value of 1. Error bars indicate RQ min and RQ max values calculated on 1 standard deviation. All RQ, RQ min and RQ max values were calculated with ViiA7 software on Applied Biosystems QPCR system.
Expression of CYP7A1 was also measured in HepG2, a human hepatoma cell line (hepg2). Expression was measured by quantitative PCR. Indicated expression levels (on the Y axis) are GAPDH normalized gene expression values called RQ values (relative quantity values), with HepG2 expression assigned a relative value of 1. Error bars indicate RQ min and RQ max values calculated on 1 standard deviation. All RQ, RQ min and RQ max values were calculated with ViiA7 software on Applied Biosystems QPCR system.
Expression of CYP3A4 was also measured in HepG2, a human hepatoma cell line (hepg2). Expression was measured by quantitative PCR. Indicated expression levels (on the Y axis) are GAPDH normalized gene expression values called RQ values (relative quantity values), with HepG2 expression assigned a relative value of 1. Error bars indicate RQ min and RQ max values calculated on 1 standard deviation. All RQ, RQ min and RQ max values were calculated with ViiA7 software on Applied Biosystems QPCR system.
Expression of AFP was also measured in HepG2, a human hepatoma cell line (hepg2). Expression was measured by quantitative PCR. Indicated expression levels (on the Y axis) are GAPDH normalized gene expression values called RQ values (relative quantity values), with HepG2 expression assigned a relative value of 1. Error bars indicate RQ min and RQ max values calculated on 1 standard deviation. All RQ, RQ min and RQ max values were calculated with ViiA7 software on Applied Biosystems QPCR system.
Expression of AFP was also measured in HepG2, a human hepatoma cell line (hepg2). Expression was measured by quantitative PCR.

In series [3] the test system is hES cell-derived fetal hepatocytes. The series is described as follows: QPCR of liver genes in hES cell-derived fetal hepatocytes after lentiviral transduction of mir-122. In kind it is cell-based, human. The source says: We next determined whether forced expression of mir-122 in the hES cell-derived fetal hepatocytes could program these cells to a more mature differentiated state. We expressed mir-122 in the fetal hepatocytes by lentiviral transduction. Using this method, we achieved ˜5% transduction efficiency (see FIG. 2 GFP positive cells).
These GFP positive cells were then FACS sorted, and RNA was isolated for QPCR measurements of functional genes.
H1 hES cells (J. A. Thomson et al., Science (1998) 282: 1145-1147) cultured in E8 medium (Chen et al., 2011 Nature Methods 8(5) 424-9) were differentiated to fetal hepatocytes lacking functional hepatic enzyme activity following a previously published protocol (see J. Cai et al., Hepatology (2007) 45: 1229-1239), with some modifications. Briefly, the hES cells at approximately 50% confluency were treated with 0.5 mg/ml Albumin fraction V (Sigma) and 100 ng/ml Activin A (Sigma) for 3 days. On the second day of treatment, 0.1% Insulin-transferrin-Selenium (Sigma) was added, and on the third day of treatment, 1.0% Insulin-transferrin-Selenium (Sigma) was added. From day four to day eight, the cells were treated with 30 ng/ml FGF4 (R&D Systems) along with 20 ng/ml BMP2. From days nine through thirteen, 20 ng/ml HGF (R&D Systems) were added to the medium, and finally, the cells were treated for five days with 10 ng/ml Oncostatin M (R&D Systems) and 0.1 μM Dexamethasone (Sigma). Throughout differentiation, hepatocyte growth medium (Promocell) was used as a base medium and cells were kept on Matrigel™ coated plates. […] hepatocytes were obtained for comparison studies (Celsis).
Mir-122 was transduced into the hES derived cells having hepatocyte morphology by a lentiviral vector pEZX-MR01 (Genecoepoeia). Approximately ˜5% of cells were transduced, as measured by GFP expression.
In this example, we performed a QRT PCR comparison of the gene expression levels of the mature hepatocytes produced from human embryonic stem cells according to the procedure outlined in Example 1 (ES hepatocyte expressing mir-122), the expression levels for the same proteins in human primary hepatocytes (Human hepatocyte), the expression levels for the same proteins in the fetal hepatocytes before transduction (ES hepatocyte), and the expression levels for the same proteins in HepG2 cells.

Series [4] has as its system primary human hepatocytes. The series is described as follows: Functional gene expression over time in primary human hepatocytes transduced with mir-122 (QPCR). In kind it is cell-based. The procedure: FIGS. 6A through 6E are a bar graphs showing that lentivirus mediated DNA transfer to primary hepatocytes derived directly from liver tissue results in improved hepatic protein expression over time, as compared to control primary hepatocytes. Expression is shown for albumin (FIG. 6A), tyrosine aminotransferase (TAT) (FIG. 6B), and the CYP 450 enzymes CYP1A2 (FIG. 6C), CYP3A4 (FIG. 6D) and CYP7A1 (FIG. 6E). Expression was measured by quantitative PCR, and the reported values were normalized by GAPDH expression (RQ or relative quantity values, error bars representing standard error, RQ min and RQ max). Expression values are shown for each gene at the time the culture was established (0 day) and 9, 13 or 19 days later.
We cultured primary human hepatocytes (both control hepatocytes and hepatocytes into which vectors were transferred to express mir-122). Mir-122 was transduced into these primary hepatocytes using the lentiviral vector PEZX-MR01. GFP expressing cells were FACS sorted before RNA isolation and gene expression measurements using QPCR.

Entries after “also recorded” stand apart in the source; their conditions may differ.

In the case of `COc1ccc2[nH]c([S+]([O-])Cc3ncc(C)c(OC)c3C)nc2c1` (centres unmarked) [omeprazole], the “induction of CYP1A2 upon drug challenge” value in the series on CYP1A2 (hESC-derived hepatocytes transduced with both mir-122 and let-7c, versus non-drug treated (ND) cells) is “strongly induced; also recorded: induced the expression”; in the series with CYP1A2 (hESC-derived hepatocytes with let-7c alone, no concurrent mir-122), “did not elicit induction”. The “expression of CYP1A2 upon addition of drug” value in the series on CYP1A2 (mir-122 transduced hES cell-derived hepatocytes, 100 μM for 3 days) is “substantially up-regulated”.

On to `CO[C@H]1/C=C/O[C@@]2(C)Oc3c(C)c(O)c4c(O)c(c(/C=N/N5CCN(C)CC5)c(O)c4c3C2=O)NC(=O)/C(C)=C\C=C\[C@H](C)[C@H](O)[C@@H](C)[C@@H](O)[C@@H](C)[C@H](OC(C)=O)[C@@H]1C` [rifampicin], for which, in the series on hESC derived hepatocytes [1], the “efficiency of metabolism to 25-des acetyl rifampin” value is given as “comparable to primary human hepatocytes”.

B1: let-7c: human microRNA let-7c (pre-miRNA SEQ ID NO:3, mature SEQ ID NO:4); coding DNA transferred by lentiviral vector pEZX-MR03 (nucleic acid, listed as Homo sapiens)
chain 1: GCAUCCGGGUUGAGGUAGUAGGUUGUAUGGUUUAGAGUUACACCCUGGGAGUUAACUGUACAACCUUCUAGCUUUCCUUGGAGC
chain 2: UGAGGUAGUAGGUUGUAUGGUU
For the molecule B1, the “productive infection by HBV (relative number of copies of the HBV genome)” value with hepatitis B virus (HBV) (transduced versus non-transduced hESC-derived hepatocytes, seventh day after infection) was “significantly down-regulated”. For the same molecule, in the series on hESC derived hepatocytes [2], the “AFP (alpha-feto protein) expression” value is recorded as “down-regulated”, the CYP1A2 expression entry was “up-regulated”, the CYP3A4 expression entry is listed as “up-regulated” and the CYP7A1 expression entry is listed as “up-regulated”. Besides, in the series with hESC derived hepatocytes [2], the albumin expression entry was “up-regulated”.

B2: mir-122: human microRNA mir-122 (pre-miRNA SEQ ID NO:1, mature SEQ ID NO:2); coding DNA transferred by lentiviral vector (nucleic acid, listed as Homo sapiens)
chain 1: CCUUAGCAGAGCUGUGGAGUGUGACAAUGGUGUUUGUGUCUAAACUAUCAAACGCCAUUAUCACACUAAAUAGCUACUGCUAGGC
chain 2: UGGAGUGUGACAAUGGUGUUUG
As for B2, the “HBV genomes present per well” value with hepatitis B virus (HBV) (mir-122 transduced hESC-derived hepatocytes, 6 days post-infection) is listed as “presence of HBV genomes”. In addition, the “expression of functional genes (quantitative PCR)” value in series [3] (GFP positive FACS sorted hES cell-derived hepatocytes expressing miR-122) is recorded as “significant up-regulation”. Moreover, the “expression of functional genes (alb, tat, CYP1A2, CYP7A1, CYP3A4, aat) compared with primary hepatocytes” value in series [3] (QRT PCR, transduced mature hepatocytes versus human primary hepatocytes) is listed as “equal or greater expression than in primary hepatocytes”. In addition, the transduction efficiency in series [3] (lentiviral transduction, GFP positive cells) is around 5%. Moreover, the alpha-feto protein expression entry in series [3] (mir-122 expressing hESC-derived hepatocytes) is reported as “not down-regulated”. Further, the “CYP gene expression compared with fresh hepatocytes (day 0)” value in series [4] (mir-122 expressing primary hepatocytes in culture) was “equal or greater amount”. The “mRNA levels of functional genes that decreased in control culture” value in series [4] (primary hepatocytes cultured 9 days or more, overexpressing mir-122) is “regained their expression”.
